{"source": "paper PMC8629192", "molecular_target": "spike, depending on domain and variant", "assay": "ELISA"}
{"substance": "LRRC15-Fc (from UniProt Q8TF66) (Fc fusion)", "values": [{"measurement": "Kd", "result": "43 to 148", "unit": "nM"}]}
